Values belong to the binder of their own block, whether it stands above or below them. Square brackets hold non-standard residues; d marks the D form. Side chains are listed from the residue outwards. Ends that are not written are not given here. * marks the point of attachment. 1‑phenylbutyric acid = 1-phenylbutyric acid (N-terminal acyl cap); D‑di‑Glu = D-di-Glu linker between Lys side chain and DOTA; DOTA = O=C(O)CN1CCN(CC(=O)O)CCN(CC(=O)*)CCN(CC(=O)O)CC1; Ahx = NCCCCCC(=O)O
How the values were obtained:
[1] = target: T1, melanocortin-1 receptor (MC1R) (UniProt Q01726 1-317, limits assumed); assay: TRF saturation binding with the Eu chelate on Hek293/MC1R cells; specific = total minus nonspecific (20x MC1RL-DOTA block)
T1 construct: whole, on cells; also called Hek293/MC1R cells; A375/MC1R cells
Procedure: The binding sequence is 1-Phenylbutyric acid-His(D)Phe-Arg-Trp-Gly-Lys(D-di-Glu-DOTA)-CONH₂. Eu is chelated into the conjugated DOTA for lanthanide-based binding assays but ²²⁵Ac, ⁶⁸Ga, or ¹¹¹In can also be chelated. […] 20×MC1Rl-DOTA was used for blocking. […] Data is the result of two repeats.
(§1) Time-resolved fluorescence (TRF) competition binding assays were performed to determine binding affinities of these DOTA conjugates (FIG. 2). The TRF method takes advantage of the long fluorescence lifetime of the lanthanide Europium and can detect less than one attomole in a multiwell plate sample. Hek293/MC1R cells (Hek293 cells engineered to over-express MC1R) were used for the binding assays. Saturation TRF binding assays were performed using versions of the compounds with chelated europium to determine specific and non-specific binding (FIG. 17-20).

[2] = target: T1, melanocortin-1 receptor (MC1R); assay: competitive binding assay (FIG. 2)
Procedure: as §1

[3] = target: T1, melanocortin-1 receptor (MC1R); assay: time-resolved fluorescence (TRF) competition binding assay on Hek293/MC1R cells
Procedure: as §1

[4] = target: T1, melanocortin-1 receptor (MC1R); assay: not stated in the sentence (binding affinity of the DOTA conjugate and its chelates)

T1 sequence (Q01726 whole entry): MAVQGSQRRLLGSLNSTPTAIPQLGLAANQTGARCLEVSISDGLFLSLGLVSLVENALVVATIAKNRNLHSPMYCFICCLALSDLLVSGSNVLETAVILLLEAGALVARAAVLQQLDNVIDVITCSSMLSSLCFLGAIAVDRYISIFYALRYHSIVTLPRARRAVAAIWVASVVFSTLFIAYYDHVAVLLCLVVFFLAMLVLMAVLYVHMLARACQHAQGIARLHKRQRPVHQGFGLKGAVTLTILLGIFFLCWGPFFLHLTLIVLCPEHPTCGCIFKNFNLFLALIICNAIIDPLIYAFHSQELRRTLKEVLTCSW

- Kd [1]: 0.19 nM
B1: MC1RL linked through D-di-Glu to DOTA:^152Eu (peptide)
peptide: {1‑phenylbutyric acid}-H[dF]RWGK([D‑di‑Glu-DOTA])-NH2
modifications: also: 152Eu chelate
notes: also called 1-Phenylbutyric acid-His(D)Phe-Arg-Trp-Gly-Lys(D-di-Glu-DOTA)-CONH2, Eu chelate

- Ki [2]: 0.2 nM
- Ki [3]: 0.23 nM
B2: ^139La-DOTA-MC1RL (peptide)
peptide: H[dF]RWGK([Ahx-DOTA])-NH2
modifications: not fully specified (N-terminus); also: 139La chelated by DOTA
notes: Nonradioactive surrogate of ^225Ac-DOTA-MC1RL; also called cold agent

- Ki [4]: 0.3 nM
- Ki [3]: 0.24 nM
B3: DOTA-MC1RL (unlabeled) (peptide)
peptide: H[dF]RWGK([Ahx-DOTA])-NH2
modifications: not fully specified (N-terminus)
notes: also called MC1RL-DOTA; DOTA labeled conjugate of the MC1R specific ligand

- Kd [1]: 0.69 nM
B4: MC1RL linked to DOTA:^152Eu (peptide)
peptide: {1‑phenylbutyric acid}-H[dF]RWGK(DOTA)-NH2
modifications: also: 152Eu chelate
notes: also called 1-Phenylbutyric acid-His(D)Phe-Arg-Trp-Gly-Lys(DOTA)-CONH2, Eu chelate

- Ki [3]: 0.34 nM
B5: ^67/69Ga-DOTA-MC1RL (peptide)
peptide: H[dF]RWGK([Ahx-DOTA])-NH2
modifications: not fully specified (N-terminus); also: nonradioactive 67/69Ga chelated by DOTA
notes: Nonradioactive surrogate of the ^68Ga PET agent

- Kd [1]: 0.88 nM
B6: MC1RL linked through aminohexanoic acid (Ahx) to DOTA:^152Eu (peptide)
peptide: {1‑phenylbutyric acid}-H[dF]RWGK([Ahx-DOTA])-NH2
modifications: also: 152Eu chelate
notes: also called 1-Phenylbutyric acid-His(D)Phe-Arg-Trp-Gly-Lys(Ahx-DOTA)-CONH2, Eu chelate

Reference: patent US20180126013A1 (H LEE MOFFITT CANCER CENTER AND RESEARCH INSTITUTE, published 2018)
